We go through 29 sequences from the supplement of paper PMC9170038.

The data set deals with MS2 coat protein. Briefly: apparent KD of MS2 coat protein; designed switch direction (-1 OFF switch, 1 ON switch): -1; higher = weaker reporter binding. In a few lines: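 The reported apparent KD is a per-design median over clusters, from curve fits of normalised cluster fluorescence. Protein titrations used SNAP-549-labelled MS2 coat protein, doubled from 0.7 or 1.5 nM to 3 µM, in Tris-HCl pH 7.5 buffer with KCl, MgCl2, BSA, DTT, tRNA and Tween-20, with no input, 200 uM small-molecule ligand, or an oligonucleotide input. The RNA switches were transcribed on Illumina chips by stalled E. coli RNA polymerase.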

[1] abbreviates: Eterna round: R95, input ligand: microRNA oligo, concentration not stated.
Setting [2] is: Eterna round: R95, input ligand: FMN 200 uM.
Setting [3] is: Eterna round: R95, input ligand: none.
Where [4] appears, read: input ligand: microRNA oligo, concentration not stated.

Turning to “GUUUUCAGACGGAGAUCCUACAUGAGGAUCACCCAUGUCUCUCUUGUUUUUUGCUCGUCUUUUCCUCCUCUGUUCUC [Elimod 32 - Jieux - Sensor, turn-off variant 1] (Eterna round: R97, puzzle: Sensor, turn-off variant 1)”, the “apparent KD of MS2 coat protein” value was 447 nM (input ligand: FMN 200 uM) and 515 nM (input ligand: none).

Turning to “UAAAAGCGGAAGGAUAUGUGUCUAAAGUCUGUAGCAGAAGGUCCGACAUGAGGAUCACCCAUGUGACCUGGUGC [Biatceis] (puzzle: Exclusion 6)”, the “apparent KD of MS2 coat protein” value under setting [1] amounted to 10.3 nM.

As for “UAAAAGCUAGGAUAUACUGGCACACAACUCAUAAAUUCAAGACAUGAGGAUCACCCAUGUAGAAGGAGCAAAUA [EX2 A.3] (Eterna round: R97, puzzle: Exclusion 2)”, the “apparent KD of MS2 coat protein” value amounted to 63.5 nM (input ligand: FMN 200 uM) and 23.6 nM (input ligand: none).

“UAAAAUAGUGUGAGGAUAUGCUGGUCCUUGGAUCAGCAGAAGGCACAUGAGGAUCACCCAUGUAGUUAAUUAUA [Mat - Exclusion 4 - JL Mod - D24] (puzzle: Brourd's mod of Exclusion 4)”: the “apparent KD of MS2 coat protein” value under setting [1] came out at 36.8 nM.

Turning to “UAAACAUGGAUAUAACAGUACAUGAGGAUCACCCAUGUUAAUAUGAUAGAUUAUAACAAGUUUUUUUGUCGUCUUAA [Tabletop] (Eterna round: R97, puzzle: Sensor, turn-off variant 1)”, the “apparent KD of MS2 coat protein” value amounted to 85 nM (input ligand: FMN 200 uM) and 88 nM (input ligand: none).

“UAACAAAUUGUCAGGAUAUCAAUCCCGGCCCAGAUUGAGAAGGGACAUGAGGAUCACCCAUGUAUGAUUCUCAA [jl-ex4-4.51 ViennaUCT mod] (Eterna round: R97, puzzle: Brourd's mod of Exclusion 4)”: the “apparent KD of MS2 coat protein” value is, setting by setting: (input ligand: FMN 200 uM) 65.4 nM; (input ligand: none) 31.9 nM.

In the case of “UAACUGUGAGGAUAUUCGUAGUACACGGAGACGUGUAUUACGGAGAAGGCACAUGAGGAUCACCCAUGUUCCUU [Default title] (Eterna round: R97, puzzle: Exclusion 4)”, the “apparent KD of MS2 coat protein” value is, setting by setting: (input ligand: FMN 200 uM) 75.6 nM; (input ligand: none) 17.4 nM.

Turning to “UAACUUCUUGUAAGGAUAUCGGCGCGAAAGCGCAACGAGAAGGUACAUGAGGAUCACCCAUGUGAAAUAAGAAU [Mod of Zala 12 - Jieux - Brourd's Mod of Exclusion 4] (Eterna round: R97, puzzle: Brourd's mod of Exclusion 4)”, the “apparent KD of MS2 coat protein” value runs as follows: (input ligand: FMN 200 uM) 104 nM; (input ligand: none) 28.3 nM.

As to “UAAGAAGGUGUUAGGAUAUGCAGAGCAGGGCUAAGGCAGAAGGGACAUGAGGAUCACCCAUGUGCUACGGGUGC [Enrainbera] (puzzle: Brourd's mod of Exclusion 4)”, the “apparent KD of MS2 coat protein” value stood at 51.2 nM under setting [2], 37.2 nM under setting [1] and 35.9 nM under setting [3].

On to “UAAGAGUGAGGAUAUACGUCGCUGGUCGGGAUGGACGCAUGACAUGAGGAUCACCCAUGUAGAAGGCACAAAAC [Enxela Mod 10 - Jieux - Exclusion 2] (Eterna round: R97, puzzle: Exclusion 2)”, for which the “apparent KD of MS2 coat protein” value is, setting by setting: (input ligand: FMN 200 uM) 87.6 nM; (input ligand: none) 25.4 nM.

For “UAAGAGUGAGGAUAUGCGUCGCUGGUCCGGAUGGACGCAUGACAUGAGGAUCACCCAUGUAGAAGGCACAAAAC [Enxela Mod 5 - Jieux - Exclusion 2] (Eterna round: R97, puzzle: Exclusion 2)”, the “apparent KD of MS2 coat protein” value reads like this: (input ligand: FMN 200 uM) 23.5 nM; (input ligand: none) 23.5 nM.

Consider “UAAGAUUACCGAGGAUAUGGUAGUUUCUAUUAACCAGAAGGCGGACUCAACAUGAGGAUCACCCAUGUAUAAAGGGUAUUAGAU [JR_ExcNG1_Sub041] (Eterna round: R96, puzzle: Exclusion NG 1)”, for which the “apparent KD of MS2 coat protein” value is, setting by setting: (input ligand: FMN 200 uM) 91.7 nM; under setting [4], 56.4 nM; (input ligand: none) 116 nM.

For “UAAUAAAAGGAGGAUAUCGUAUCGGAAACGAUACGAGAAGGCUUAACAUGAGGAUCACCCAUGUUCCUCAAUAA [Mat - Exclusion 6 - Eli Mod - D90] (puzzle: Exclusion 6)”, the “apparent KD of MS2 coat protein” value under setting [2] stood at 59.3 nM, the “apparent KD of MS2 coat protein” value under setting [1] was 28.6 nM and the “apparent KD of MS2 coat protein” value under setting [3] was 32.6 nM.

In the case of “UAAUAUAAGCAAAGAUCCUACAUGAGGAUCACCCAUGUGCUCGUCUUAUAAAGUACUAUCACGAAAGUGAUAGUACA [Mat - Sensor v3 - turn-off var 1 - Eli Mod - D81] (puzzle: Sensor v3, turn-off variant 1)”, the “apparent KD of MS2 coat protein” value is, setting by setting: under setting [2], 116 nM; under setting [1], 19.8 nM; under setting [3], 170 nM.

In the case of “UAAUGUAUAUAGGAUAUCUAGCUGGAAACAGCUAGAGAAGGAUGUACAUGAGGAUCACCCAUGUAAAUCAAUAA [Ex6/9-A1] (Eterna round: R97, puzzle: Exclusion 6)”, the “apparent KD of MS2 coat protein” value by setting is: (input ligand: FMN 200 uM) 57.5 nM; (input ligand: none) 19.5 nM.

On to “UAAUUAAAUGUGAGGAUAUGCUGGUCCUUGGAUCAGCAGAAGGCACAUGAGGAUCACCCAUGUAAUUUAUUUAU [Mat - Exclusion 4 - JL Mod - D59] (puzzle: Brourd's mod of Exclusion 4)”, for which the “apparent KD of MS2 coat protein” value under setting [1] amounted to 54.3 nM.

Take “UAAUUGAUUAAUAGAUUAUACAUGAGGAUCACCCAUGUAGAUCCUACGUGCCAUUUAAGUAGCUCGUCUUAUUAUUA [Sensor-V1 #65] (Eterna round: R97, puzzle: Sensor, turn-off variant 1)”: the “apparent KD of MS2 coat protein” value runs as follows: (input ligand: FMN 200 uM) 59.4 nM; (input ligand: none) 64.5 nM.

Consider “UAAUUUUUAGUAAGGAUAUCGGUCCCAAGGGACAACGAGAAGGUACAUGAGGAUCACCCAUGUUACGAAAGAAU [Mod of Zala 10 - Jieux - Brourd's Mod of Exclusion 4] (Eterna round: R97, puzzle: Brourd's mod of Exclusion 4)”, for which the “apparent KD of MS2 coat protein” value came to 17.6 nM (input ligand: FMN 200 uM) and 18 nM (input ligand: none).

Regarding “UACAAGCUGCUCUAAUAGAACAUGAGGAUCACCCAUGUUGCUAAACAUGAAAGAAUUGGCUCCGCAUGGAUUGCUCG [Eternabot (L2) Solution 9] (Eterna round: R97, puzzle: Sensor, turn-off variant 1)”, the “apparent KD of MS2 coat protein” value was found to be 31.9 nM (input ligand: FMN 200 uM) and 33.6 nM (input ligand: none).

As to “UACAUGAGGAUCACCCAUGUUUUGUCGUGUAUGGUACCCAUCUAGGAUAUCGUGUUAUUUAACCACGAGAAGGAGAGUAUCAAU [MOD4 Solution 21 by JMF] (Eterna round: R96, puzzle: Exclusion NG 3)”, the “apparent KD of MS2 coat protein” value is, setting by setting: (input ligand: FMN 200 uM) 22.4 nM; under setting [4], 13 nM; (input ligand: none) 21.8 nM.

Consider “UACAUGAGGAUCACCCAUGUUUUGUCGUGUAUGGUAUUUAUCUAGGAUAUCAAAUUAUUUAUUUAUGAGAAGGAGAAUAUUAAU [JMF's solution 9] (Eterna round: R96, puzzle: Exclusion NG 3)”, for which the “apparent KD of MS2 coat protein” value is, setting by setting: (input ligand: FMN 200 uM) 37.9 nM; under setting [4], 26.5 nM; (input ligand: none) 44.6 nM.

Take “UACAUGAGGAUCACCCAUGUUUUGUCGUGUAUGGUAUUUAUCUAGGAUAUCAAGUUAGUUAUUUAUGAGAAGGAGAAUAUUAAU [JMF's solution 29] (Eterna round: R96, puzzle: Exclusion NG 3)”: the “apparent KD of MS2 coat protein” value is, setting by setting: (input ligand: FMN 200 uM) 42.5 nM; under setting [4], 30.7 nM; (input ligand: none) 39.4 nM.

“UACAUGAGGAUCACCCAUGUUUUGUCGUGUAUGGUAUUUAUCUAGGAUAUCAAGUUAUUUAGUUAUGAGAAGGAGAAUAUUAAU [JMF's solution 35] (Eterna round: R96, puzzle: Exclusion NG 3)”: the “apparent KD of MS2 coat protein” value is, setting by setting: (input ligand: FMN 200 uM) 31.5 nM; under setting [4], 31.6 nM; (input ligand: none) 40.4 nM.

Consider “UACAUGAGGAUCACCCAUGUUUUGUCGUGUAUGGUAUUUAUCUAGGAUAUCAAUGUAUAUAUUUAUGAGAAGGAGAAUAUUAAU [JMF's solution 42] (Eterna round: R96, puzzle: Exclusion NG 3)”, for which the “apparent KD of MS2 coat protein” value (input ligand: FMN 200 uM) came to 37.4 nM, the “apparent KD of MS2 coat protein” value under setting [4] turned out to be 25.1 nM and the “apparent KD of MS2 coat protein” value (input ligand: none) came out at 34 nM.

On to “UACAUGAGGAUCACCCAUGUUUUGUCGUGUAUGGUAUUUAUCUAGGAUAUCAAUGUAUUUAUGUAUGAGAAGGAGAAUAUUAAU [JMF's solution 47] (Eterna round: R96, puzzle: Exclusion NG 3)”, for which the “apparent KD of MS2 coat protein” value under setting [4] turned out to be 32.3 nM.

With “UACAUGAGGAUCACCCAUGUUUUGUCGUGUAUGGUAUUUAUCUAGGAUAUCAUAUUAUUUAUUUAUGAGAAGGAGAAUAUUAAU [JMF's solution 95] (Eterna round: R96, puzzle: Exclusion NG 3)”, the “apparent KD of MS2 coat protein” value runs as follows: (input ligand: FMN 200 uM) 45.8 nM; under setting [4], 27.1 nM; (input ligand: none) 26.9 nM.

For the sequence “UACAUGAGGAUCACCCAUGUUUUGUCGUGUAUGGUAUUUAUCUAGGAUAUCAUUUUAUUUGGUUAUGAGAAGGAGAAUAUUAAU [JMF's solution 92] (Eterna round: R96, puzzle: Exclusion NG 3)”, the “apparent KD of MS2 coat protein” value worked out at 24.1 nM (input ligand: FMN 200 uM), 22.7 nM under setting [4] and 30.5 nM (input ligand: none).

For the sequence “UACAUGAGGAUCACCCAUGUUUUGUCGUGUUUGGUACCCGUUUAGGAUAUCGUGUUAUUGGACCGCGAGAAGGAGAGUAUCUUU [Excl-NG3-LRO07] (Eterna round: R96, puzzle: Exclusion NG 3)”, the “apparent KD of MS2 coat protein” value runs as follows: (input ligand: FMN 200 uM) 31.8 nM; under setting [4], 25.3 nM; (input ligand: none) 33.3 nM.

In the case of “UACCGGCGGACCGAAGCUUUUUGCUUGUCUUAUACUACGACAUGAGGAUCACCCAUGUGGUGGUGGUCCGUUGUAGU [JL ViennaUCT Bitein mod 3] (puzzle: Sensor v3, turn-off variant 2)”, the “apparent KD of MS2 coat protein” value is, setting by setting: under setting [2], 48.3 nM; under setting [1], 13.1 nM; under setting [3], 52.1 nM.
